Experiments:
Test in all cases: initial rates of NADH-dependent reduction
Type in all cases: biochemical, Yamadazyma tenuis
[1] = tested on: T1, CCOC(=O)C(=O)c1ccc(C#N)cc1; conditions: apparent; 300 µM NADH; max 10 mM; W23 and K24 replaced by pentapeptide FAPRE
T1 construct: full-length enzyme; redesigned CtXR expressed in E. coli BL21 (DE3), purified by dye ligand chromatography
Source text: (§1) initial rates of NADH-dependent reduction on Candida tenuis xylose reductase (CtXR)

[2] = tested on: T2, NC(=O)C1=CN([C@@H]2O[C@H](COP(=O)(O)OP(=O)(O)OC[C@H]3O[C@@H](n4cnc5c(N)ncnc54)[C@H](O)[C@@H]3O)[C@@H](O)[C@H]2O)C=CC1; conditions: apparent; co-substrate 2′-chloroacetophenone (max 10 mM), as in the wild-type row; W23 and K24 replaced by pentapeptide FAPRE; varied: cofactor
T2 construct: full-length enzyme; redesigned CtXR expressed in E. coli BL21 (DE3), purified by dye ligand chromatography
Source text: as §1

CC(=O)c1ccc(Cl)cc1Cl = tested on: T3, CC(=O)c1ccc(Cl)cc1Cl; conditions: apparent; 300 µM NADH; max 5 mM; W23 and K24 replaced by pentapeptide FAPRE
T3 construct: full-length enzyme; redesigned CtXR expressed in E. coli BL21 (DE3), purified by dye ligand chromatography
Source text: as §1

CC(=O)c1ccccc1Cl = tested on: T4, CC(=O)c1ccccc1Cl; conditions: apparent; 300 µM NADH; max 10 mM; W23 and K24 replaced by pentapeptide FAPRE
T4 construct: full-length enzyme; redesigned CtXR expressed in E. coli BL21 (DE3), purified by dye ligand chromatography
Source text: as §1

[3] = substrate: NC(=O)C1=CN([C@@H]2O[C@H](COP(=O)(O)OP(=O)(O)OC[C@H]3O[C@@H](n4cnc5c(N)ncnc54)[C@H](O)[C@@H]3O)[C@@H](O)[C@H]2O)C=CC1; conditions: apparent; co-substrate 2′-chloroacetophenone (max 10 mM); varied: cofactor
Source text: as §1

[4] = substrate: CCOC(=O)C(=O)c1ccc(C#N)cc1; conditions: apparent; 300 µM NADH; incomplete substrate saturation (max 10 mM)
Source text: as §1

[5] = substrate: CC(=O)c1ccccc1Cl; conditions: apparent; 300 µM NADH; incomplete substrate saturation (max 10 mM)
Source text: as §1

[6] = substrate: CC(=O)c1ccc(Cl)cc1Cl; conditions: apparent; 300 µM NADH; incomplete substrate saturation (max 5 mM)
Source text: as §1

Molecule: Candida tenuis xylose reductase (CtXR) (Yamadazyma tenuis; INS25PRE/K25A/W24F)
- Km [1]: 4 ± 1 mM
- kcat [1]: 17 ± 2 s⁻¹
- Km [2]: 0.07 ± 0.02 mM
- kcat [2]: 1.0 ± 0.2 s⁻¹
- kcat/Km [2]: 7600 ± 500 M⁻¹ s⁻¹
- Km (CC(=O)c1ccc(Cl)cc1Cl): 4 ± 1 mM
- kcat (CC(=O)c1ccc(Cl)cc1Cl): 2.0 ± 0.4 s⁻¹
- Km (CC(=O)c1ccccc1Cl): 5 ± 2 mM
- kcat (CC(=O)c1ccccc1Cl): 1.0 ± 0.2 s⁻¹
- kcat/Km (CC(=O)c1ccccc1Cl): 370 ± 50 M⁻¹ s⁻¹

B1: Candida tenuis xylose reductase (CtXR) (Yamadazyma tenuis) (protein)
chain: MSASIPDIKLSSGHLMPSIGFGCWKLANATAGEQVYQAIKAGYRLFDGAEDYGNEKEVGDGVKRAIDEGLVKREEIFLTSKLWNNYHDPKNVETALNKTLADLKVDYVDLFLIHFPIAFKFVPIEEKYPPGFYCGDGNNFVYEDVPILETWKALEKLVAAGKIKSIGVSNFPGALLLDLLRGATIKPAVLQVEHHPYLQQPKLIEFAQKAGVTITAYSSFGPQSFVEMNQGRALNTPTLFAHDTIKAIAAKYNKTPAEVLLRWAAQRGIAVIPKSNLPERLVQNRSFNTFDLTKEDFEEIAKLDIGLRFNDPWDWDNIPIFV
notes: full-length enzyme; redesigned CtXR expressed in E. coli BL21 (DE3), purified by dye ligand chromatography
- Km [3]: 0.11 ± 0.025 mM
- kcat [3]: 0.8 ± 0.1 s⁻¹
- kcat/Km [3]: 8700 ± 400 M⁻¹ s⁻¹
- Km [4]: 5 ± 2 mM
- kcat [4]: 0.4 ± 0.06 s⁻¹
- kcat/Km [4]: 100 ± 10 M⁻¹ s⁻¹
- Km [5]: 13 ± 4 mM
- Km [6]: 6 ± 2 mM
- kcat [6]: 2.7 ± 0.3 s⁻¹

From publication PMC4064709, “Acceleration of an aldo-keto reductase by minimal loop engineering” (Protein Engineering, Design and Selection, 2014)
